Reference: doi:10.1101/2021.02.02.429361 (bioRxiv, 2021)

B1: GST-AtMPK3 (enzyme, Arabidopsis thaliana, UniProt Q39023 1-370, looked up)
chain: MNTGGGQYTDFPAVETHGGQFISYDIFGSLFEITSKYRPPIIPIGRGAYGIVCSVLDTETNELVAMKKIANAFDNHMDAKRTLREIKLLRHLDHENIIAIRDVVPPPLRRQFSDVYISTELMDTDLHQIIRSNQSLSEEHCQYFLYQLLRGLKYIHSANIIHRDLKPSNLLLNANCDLKICDFGLARPTSENDFMTEYVVTRWYRAPELLLNSSDYTAAIDVWSVGCIFMELMNRKPLFPGKDHVHQMRLLTELLGTPTESDLGFTHNEDAKRYIRQLPNFPRQPLAKLFSHVNPMAIDLVDRMLTFDPNRRITVEQALNHQYLAKLHDPNDEPICQKPFSFEFEQQPLDEEQIKEMIYQEAIALNPTYG

Legend:
[1] = molecular target: T1, ABI5 (His-ABI5) (Arabidopsis thaliana) (UniProt Q9SJN0); assay: EMSA
T1 sequence: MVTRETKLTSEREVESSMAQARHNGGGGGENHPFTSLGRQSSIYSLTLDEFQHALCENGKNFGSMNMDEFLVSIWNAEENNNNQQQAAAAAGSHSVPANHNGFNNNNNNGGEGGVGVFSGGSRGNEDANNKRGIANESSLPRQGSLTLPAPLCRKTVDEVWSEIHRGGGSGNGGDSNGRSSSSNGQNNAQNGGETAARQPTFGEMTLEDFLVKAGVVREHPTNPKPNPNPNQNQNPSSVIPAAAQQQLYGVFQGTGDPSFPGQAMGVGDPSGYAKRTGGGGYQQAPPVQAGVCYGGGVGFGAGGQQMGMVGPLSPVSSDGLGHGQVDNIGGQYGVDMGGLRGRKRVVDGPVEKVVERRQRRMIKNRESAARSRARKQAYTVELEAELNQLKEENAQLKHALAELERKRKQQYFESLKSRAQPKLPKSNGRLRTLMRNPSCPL

[2] = molecular target: T2, His-AtABI5 (Arabidopsis thaliana, UniProt Q9SJN0 1-442); assay: pull-down
T2 sequence (looked up): T1 sequence

Molecule	binding [1]	binding result [2]
AGTGTTATATAATTTTACGTAACGTAAAACAATACAAAATTTTAATTCCTGAACGAATAAAACGAGTATATTAATTAATTTATTGATCGTATTAAAACGAATATGATCCAATTAAGATTACAATTACTAAAATCCCCACACTATTATTGTCATTATTTAACTATGGCAGATAGATAGATACAGAACCGTAAAGGACGTTAGGAAGAGGAAGAACGTTGACGAAGTCAAC (double strand) [AtMPK3 promoter fragment (-402 to -256)]	binds	
B1		binds
